Data set [1] deals with T1, DR0865 (Fur homologue) (Deinococcus radiodurans R1?) (UniProt Q9RW04).
T1 sequence: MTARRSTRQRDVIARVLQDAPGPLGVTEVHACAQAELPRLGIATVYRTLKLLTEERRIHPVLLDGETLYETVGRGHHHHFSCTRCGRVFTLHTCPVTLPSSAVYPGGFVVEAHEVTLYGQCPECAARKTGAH
Kind of data set: EMSA. Conditions: 30 mM Tris-HCl pH 6.8, 50 mM NaCl, 5% glycerol, 50 ug/mL calf thymus DNA, 50 ug/mL BSA, Mn2+ or Fe2+ (varied), 10 nM FITC-DNA, 30 min at 4 C; 5% native PAGE.

The target in data set [2] is T2, DR2539 (Deinococcus radiodurans R1 (ATCC13939)) (UniProt Q9RRF3).
T2 sequence: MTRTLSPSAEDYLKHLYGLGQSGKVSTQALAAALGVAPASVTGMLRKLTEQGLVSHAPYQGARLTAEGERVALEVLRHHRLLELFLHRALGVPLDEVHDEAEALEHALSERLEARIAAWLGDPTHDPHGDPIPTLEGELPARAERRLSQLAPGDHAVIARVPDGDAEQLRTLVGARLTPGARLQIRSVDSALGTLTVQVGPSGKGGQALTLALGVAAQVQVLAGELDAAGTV
The data set is described as follows: EMSA. The conditions noted are these: 30 mM Tris-HCl pH 6.8, 50 mM NaCl, 5% glycerol, 50 ug/mL calf thymus DNA, 50 ug/mL BSA, Mn2+ or Fe2+ (varied), 10 nM FITC-DNA, 30 min at 4 C; 5% native PAGE. A general note: A gel shift assay detects complexes by their altered migration in electrophoresis.

Regarding “CAGGCTGGGAGAACGGGAATCCATGGCCTTTATTTTAGGCGCGACTAAAATAGTTGTCCAACGGCGTGGGCTTGAGTTCGTCTTAAAGGCCGACTTTTTTGTGAAAAATGCCTCTTTCCCAAGATCCAGTCAGATTCCGTCACGCTGGGTCATCTGGTTTTCAGGGTGCTGTCACATATTTGCTAGAGGCTC (double strand) [p1709b (mntH promoter with inverted repeat)]”, the binding result is given as “no binding” in data set [1] and “binds” in data set [2]. “GAGCCTCTAGCAAATATGTGACAGCACCCTGAAAACCAGATGACCCAGCGTGACGGAATCTGACTGGATCTTGGGAAAGAGGCATTTTTCACAAAAAAGTCGGCCTTTAAGACGAACTCAAGCCCACGCCGTTGGACA (double strand) [p1709a (mntH promoter lacking inverted repeat)]”: in data set [2], the binding entry was “no binding”.

Values taken from paper PMC3327659.
